Values of other authors in US20160114039A1, “TREATMENT OF POLYPOIDAL CHOROIDAL VASCULOPATHY” (BAYER HEALTHCARE LLC, priority 2013, published 2016).

Tested on: symptomatic PCV
Conditions: sixty-one Asian patients with symptomatic PCV; primary end point assessed at month 6

B1: ranibizumab (antibody, chains of the INN, looked up, V domains shown)
VH: EVQLVESGGGLVQPGGSLRLSCAASGYDFTHYGMNWVRQAPGKGLEWVGWINTYTGEPTYAADFKRRFTFSLDTSKSTAYLQMNSLRAEDTAVYYCAKYPYYYGTSHWYFDVWGQGTLVTVSS
VL: DIQLTQSPSSLSASVGDRVTITCSASQDISNYLNWYQQKPGKAPKVLIYFTSSLHSGVPSRFSGSGSGTDFTLTISSLQPEDFATYYCQQYSTVPWTFGQGTKVEIK
modifications: Fab
notes: anti-VEGF agent ranibizumab (Lucentis)
- complete polyp regression: 28.6%
